This is an account of results in patent US20250145729A1 (DENALI THERAPEUTICS, published 2025).

By Kd is commonly meant the concentration at which binding is half-saturated. Low values mean a tighter complex, high ones a looser complex.

Experiment [1] deals with T1, circularly permuted human TfR apical domain (human).
T1 construct: TfR residues 326-379 stand N-terminal to 194-296, loop 297-325 deleted; also called huTfR Apical Domain
T1 chain: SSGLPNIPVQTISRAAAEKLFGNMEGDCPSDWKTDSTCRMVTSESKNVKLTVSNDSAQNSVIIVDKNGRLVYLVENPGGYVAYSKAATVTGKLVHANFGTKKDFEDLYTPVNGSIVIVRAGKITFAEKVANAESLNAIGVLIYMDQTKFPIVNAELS
Briefly: SPR, supernatant, anti-Fab capture. How it is done: (§1) Clones were expressed in HEK293 cells. Supernatants were captured for SPR by GE Healthcare anti-human Fab capture kit and the affinity to human and cyno TfR apical domain was measured (Table 30). The clones in Table 30 were bivalent and each TfR-binding Fc polypeptide also contained P329G and LALA mutations.

For experiment [2], the target named is T2, circularly permuted cyno TfR apical domain (cynomolgus monkey).
T2 construct: same design as the human construct; also called cyTfR Apical Domain; cynomolgus TfR apical domain
T2 chain: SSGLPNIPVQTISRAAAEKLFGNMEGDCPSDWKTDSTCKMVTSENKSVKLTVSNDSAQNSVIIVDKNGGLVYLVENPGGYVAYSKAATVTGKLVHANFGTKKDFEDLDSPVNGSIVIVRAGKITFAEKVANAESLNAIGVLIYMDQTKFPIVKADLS
Briefly: SPR, supernatant, anti-Fab capture. How it is done: as §1
For orientation: SPR reads the build-up and loss of mass on a sensor chip optically.

B1: 6.5.11.1 (Fc fusion)
chain: APEAAGGPSVFLFPPKPKDTLMISRTPEVTCVVVDVSHEDPEVKFNWYVDGVEVHNAKTKPREEQYNSTYRVVSVLTVLHQDWLNGKEYKCKVSNKALGAPIEKTISKAKGQPREPQVYTLPPSRDELTKNQVSLTCLVKGFYPSDIAVNWFSNGQIENNYKTTPPVLDSDGSFFLYSKLTVDKSRWQQGNLFACEVMHEALHNHYTYKLLSLSPGK
notes: P329G+LALA
In experiment [1], B1 displayed a Kd of 10 µM.

B2: 42.8.88 (Fc fusion)
chain: APEAAGGPSVFLFPPKPKDTLMISRTPEVTCVVVDVSHEDPEVKFNWYVDGVEVHNAKTKPREEQYNSTYRVVSVLTVLHQDWLNGKEYKCKVSNKALGAPIEKTISKAKGQPREPQVYTLPPSRDELTKNQVSLTCLVKGFYPSDIAVEWFSEAQKLNNYKTTPPVLDSDGSFFLYSKLTVDKSRWQQGNLFACEVMHEALHNHYTYKLLSLSPGK
notes: bivalent; P329G+LALA
Take B2: the Kd in experiment [1] was 9.16 µM.

B3: 42.8.57 (Fc fusion)
chain: APEAAGGPSVFLFPPKPKDTLMISRTPEVTCVVVDVSHEDPEVKFNWYVDGVEVHNAKTKPREEQYNSTYRVVSVLTVLHQDWLNGKEYKCKVSNKALGAPIEKTISKAKGQPREPQVYTLPPSRDELTKNQVSLTCLVKGFYPSDIAVEWFSDASKESNYKTTPPVLDSDGSFFLYSKLTVDKSRWQQGNLFACEVMHEALHNHYTYKLLSLSPGK
notes: bivalent; P329G+LALA
The molecule B3 returned a dissociation constant Kd in experiment [1] of 4.9 µM.

B4: 42.8.77 (Fc fusion)
chain: APEAAGGPSVFLFPPKPKDTLMISRTPEVTCVVVDVSHEDPEVKFNWYVDGVEVHNAKTKPREEQYNSTYRVVSVLTVLHQDWLNGKEYKCKVSNKALGAPIEKTISKAKGQPREPQVYTLPPSRDELTKNQVSLTCLVKGFYPSDIAVEWFSEGQKLTNYKTTPPVLDSDGSFFLYSKLTVDKSRWQQGNLFACEVMHEALHNHYTYKLLSLSPGK
notes: bivalent; P329G+LALA
As to B4, the Kd in experiment [1] was 8.1 µM.

B5: 42.2.1.2 (Fc fusion)
chain: APEAAGGPSVFLFPPKPKDTLMISRTPEVTCVVVDVSHEDPEVKFNWYVDGVEVHNAKTKPREEQYNSTYRVVSVLTVLHQDWLNGKEYKCKVSNKALGAPIEKTISKAKGQPREPQVYTLPPSRDELTKNQVSLTCLVKGFYPSDIAVEWFYDDSKLTNYKTTPPVLDSDGSFFLYSKLTVDKSRWQQGNLFACEVMHEALHNHYTYKLLSLSPGK
notes: bivalent; P329G+LALA
Regarding B5, the figures for the equilibrium dissociation constant (Kd) in experiment [1] and in experiment [2] were 0.507 µM and 9.14 µM, respectively.

B6: 42.8.71 (Fc fusion)
chain: APEAAGGPSVFLFPPKPKDTLMISRTPEVTCVVVDVSHEDPEVKFNWYVDGVEVHNAKTKPREEQYNSTYRVVSVLTVLHQDWLNGKEYKCKVSNKALGAPIEKTISKAKGQPREPQVYTLPPSRDELTKNQVSLTCLVKGFYPSDIAVEWFSDDSKLTNYKTTPPVLDSDGSFFLYSKLTVDKSRWQQGNLFACEVMHEALHNHYTYKLLSLSPGK
notes: bivalent; P329G+LALA
Regarding B6, the Kd was determined as 3 µM in experiment [1] and 12.9 µM in experiment [2].

B7: 6.5.11.7.122 (Fc fusion)
chain: APEAAGGPSVFLFPPKPKDTLMISRTPEVTCVVVDVSHEDPEVKFNWYVDGVEVHNAKTKPREEQYNSTYRVVSVLTVLHQDWLNGKEYKCKVSNKALGAPIEKTISKAKGQPREPQVYTLPPSRDELTKNQVSLTCLVKGFYPSDIAVFWFSNGQRENNYKTTPPVLDSDGSFFLYSKLTVDKSRWQQGNLFACEVMHEALHNHYTYKLLSLSPGK
notes: bivalent; P329G+LALA
The molecule B7 gave a dissociation constant (Kd) in experiment [1] of 4.6 µM.

B8: 42.8.63 (Fc fusion)
chain: APEAAGGPSVFLFPPKPKDTLMISRTPEVTCVVVDVSHEDPEVKFNWYVDGVEVHNAKTKPREEQYNSTYRVVSVLTVLHQDWLNGKEYKCKVSNKALGAPIEKTISKAKGQPREPQVYTLPPSRDELTKNQVSLTCLVKGFYPSDIAVEWFSDDQKESNYKTTPPVLDSDGSFFLYSKLTVDKSRWQQGNLFACEVMHEALHNHYTYKLLSLSPGK
notes: bivalent; P329G+LALA
As for B8, the Kd was determined as 4.19 µM in experiment [1] and 4.94 µM in experiment [2].

B9: 6.5.11.5.42 (Fc fusion)
chain: APEAAGGPSVFLFPPKPKDTLMISRTPEVTCVVVDVSHEDPEVKFNWYVDGVEVHNAKTKPREEQYNSTYRVVSVLTVLHQDWLNGKEYKCKVSNKALGAPIEKTISKAKGQPREPQVYTLPPSRDELTKNQVSLTCLVKGFYPSDIAVYWFSGGQRENNYKTTPPVLDSDGSFFLYSKLTVDKSRWQQGNLFACEVMHEALHNHYTYKLLSLSPGK
notes: P329G+LALA
In experiment [1], B9 had a Kd of 2 µM. In other words, the single-digit micromolar range.

B10: 42.8.95 (Fc fusion)
chain: APEAAGGPSVFLFPPKPKDTLMISRTPEVTCVVVDVSHEDPEVKFNWYVDGVEVHNAKTKPREEQYNSTYRVVSVLTVLHQDWLNGKEYKCKVSNKALGAPIEKTISKAKGQPREPQVYTLPPSRDELTKNQVSLTCLVKGFYPSDIAVEWFSEASKLTNYKTTPPVLDSDGSFFLYSKLTVDKSRWQQGNLFACEVMHEALHNHYTYKLLSLSPGK
notes: bivalent; P329G+LALA
In the case of B10, the equilibrium dissociation constant (Kd) was determined as 4.13 µM in experiment [1] and 23.1 µM in experiment [2].

B11: 42.8.87 (Fc fusion)
chain: APEAAGGPSVFLFPPKPKDTLMISRTPEVTCVVVDVSHEDPEVKFNWYVDGVEVHNAKTKPREEQYNSTYRVVSVLTVLHQDWLNGKEYKCKVSNKALGAPIEKTISKAKGQPREPQVYTLPPSRDELTKNQVSLTCLVKGFYPSDIAVEWFSEAQKESNYKTTPPVLDSDGSFFLYSKLTVDKSRWQQGNLFACEVMHEALHNHYTYKLLSLSPGK
notes: bivalent; P329G+LALA
In the case of B11, in experiment [1], binding was put at a Kd of 1.66 µM. In other words, the single-digit micromolar range.

B12: 42.2.3-1H (Fc fusion)
chain: APEAAGGPSVFLFPPKPKDTLMISRTPEVTCVVVDVSHEDPEVKFNWYVDGVEVHNAKTKPREEQYNSTYRVVSVLTVLHQDWLNGKEYKCKVSNKALGAPIEKTISKAKGQPREPQVYTLPPSRDELTKNQVSLTCLVKGFYPSDIAVEWFYGNAKETNYKTTPPVLDSDGSFFLYSKLTVDKSRWQQGNLFACEVMHEALHNHYTYKLLSLSPGK
notes: P329G+LALA
Regarding B12, the Kd in experiment [1] is 0.22 µM; in experiment [2] it was 2 µM.

B13: 42.8.64 (Fc fusion)
chain: APEAAGGPSVFLFPPKPKDTLMISRTPEVTCVVVDVSHEDPEVKFNWYVDGVEVHNAKTKPREEQYNSTYRVVSVLTVLHQDWLNGKEYKCKVSNKALGAPIEKTISKAKGQPREPQVYTLPPSRDELTKNQVSLTCLVKGFYPSDIAVEWFSDDQKLNNYKTTPPVLDSDGSFFLYSKLTVDKSRWQQGNLFACEVMHEALHNHYTYKLLSLSPGK
notes: bivalent; P329G+LALA
In experiment [1], B13 returned a dissociation constant Kd of 5.69 µM.

B14: 42.8.55 (Fc fusion)
chain: APEAAGGPSVFLFPPKPKDTLMISRTPEVTCVVVDVSHEDPEVKFNWYVDGVEVHNAKTKPREEQYNSTYRVVSVLTVLHQDWLNGKEYKCKVSNKALGAPIEKTISKAKGQPREPQVYTLPPSRDELTKNQVSLTCLVKGFYPSDIAVEWFSDASKENNYKTTPPVLDSDGSFFLYSKLTVDKSRWQQGNLFACEVMHEALHNHYTYKLLSLSPGK
notes: bivalent; P329G+LALA
On to B14, for which, in experiment [1], the Kd is 6.16 µM.

B15: 42.8.172 (Fc fusion)
chain: APEAAGGPSVFLFPPKPKDTLMISRTPEVTCVVVDVSHEDPEVKFNWYVDGVEVHNAKTKPREEQYNSTYRVVSVLTVLHQDWLNGKEYKCKVSNKALGAPIEKTISKAKGQPREPQVYTLPPSRDELTKNQVSLTCLVKGFYPSDIAVEWFYDDQKLNNYKTTPPVLDSDGSFFLYSKLTVDKSRWQQGNLFACEVMHEALHNHYTYKLLSLSPGK
notes: bivalent; P329G+LALA
For B15, the Kd in experiment [1] was 0.795 µM. Compared with the last molecule, the Kd is about 7.7-fold lower.

B16: 42.8.16 (Fc fusion)
chain: APEAAGGPSVFLFPPKPKDTLMISRTPEVTCVVVDVSHEDPEVKFNWYVDGVEVHNAKTKPREEQYNSTYRVVSVLTVLHQDWLNGKEYKCKVSNKALGAPIEKTISKAKGQPREPQVYTLPPSRDELTKNQVSLTCLVKGFYPSDIAVEWFSGAQKLNNYKTTPPVLDSDGSFFLYSKLTVDKSRWQQGNLFACEVMHEALHNHYTYKLLSLSPGK
notes: bivalent; P329G+LALA
In experiment [1], B16 displayed a Kd of 7.81 µM.

B17: 42.8.94 (Fc fusion)
chain: APEAAGGPSVFLFPPKPKDTLMISRTPEVTCVVVDVSHEDPEVKFNWYVDGVEVHNAKTKPREEQYNSTYRVVSVLTVLHQDWLNGKEYKCKVSNKALGAPIEKTISKAKGQPREPQVYTLPPSRDELTKNQVSLTCLVKGFYPSDIAVEWFSEASKLNNYKTTPPVLDSDGSFFLYSKLTVDKSRWQQGNLFACEVMHEALHNHYTYKLLSLSPGK
notes: bivalent; P329G+LALA
In the case of B17, the dissociation constant (Kd) was 4.07 µM in experiment [1] and 22.2 µM in experiment [2].

B18: 42.8.17 (Fc fusion)
chain: APEAAGGPSVFLFPPKPKDTLMISRTPEVTCVVVDVSHEDPEVKFNWYVDGVEVHNAKTKPREEQYNSTYRVVSVLTVLHQDWLNGKEYKCKVSNKALGAPIEKTISKAKGQPREPQVYTLPPSRDELTKNQVSLTCLVKGFYPSDIAVEWFSGAQKLTNYKTTPPVLDSDGSFFLYSKLTVDKSRWQQGNLFACEVMHEALHNHYTYKLLSLSPGK
notes: bivalent; P329G+LALA
The molecule B18 gave a Kd in experiment [1] of 10.4 µM.

B19: 42.8.56 (Fc fusion)
chain: APEAAGGPSVFLFPPKPKDTLMISRTPEVTCVVVDVSHEDPEVKFNWYVDGVEVHNAKTKPREEQYNSTYRVVSVLTVLHQDWLNGKEYKCKVSNKALGAPIEKTISKAKGQPREPQVYTLPPSRDELTKNQVSLTCLVKGFYPSDIAVEWFSDASKETNYKTTPPVLDSDGSFFLYSKLTVDKSRWQQGNLFACEVMHEALHNHYTYKLLSLSPGK
notes: bivalent; P329G+LALA
With B19, the equilibrium dissociation constant (Kd) in experiment [1] was found to be 4.83 µM; in experiment [2], 28.4 µM.

B20: 42.8.99 (Fc fusion)
chain: APEAAGGPSVFLFPPKPKDTLMISRTPEVTCVVVDVSHEDPEVKFNWYVDGVEVHNAKTKPREEQYNSTYRVVSVLTVLHQDWLNGKEYKCKVSNKALGAPIEKTISKAKGQPREPQVYTLPPSRDELTKNQVSLTCLVKGFYPSDIAVEWFSEDQKESNYKTTPPVLDSDGSFFLYSKLTVDKSRWQQGNLFACEVMHEALHNHYTYKLLSLSPGK
notes: bivalent; P329G+LALA
As to B20, binding in experiment [1] was characterised by a dissociation constant (Kd) of 6.38 µM.
